2 molecules from PMC4053799, “RNA Detection in Live Bacterial Cells Using Fluorescent Protein Complementation Triggered by Interaction of Two RNA Aptamers with Two RNA-Binding Peptides” can be followed below.

Details in all cases: label: none (ethidium bromide stain)
Series [1] has as its target T1, HTLV-1 Rex peptide (HTLV-1, UniProt P0C206).
T1 chain: MPKTRRRPRRSQRKRP
Put plainly: EMSA; 50 mM Tris-HCl pH 8.0, 50 mM KCl, 30 °C 15 min; RNA refolded from 95 °C; 15% PAGE in Tris-borate-EDTA, ethidium bromide stain. (In general: Mobility shift assays separate free from complexed probe on a gel.)

Series [2] has as its target T2, bacteriophage λN peptide (bacteriophage lambda, UniProt P03045).
T2 chain: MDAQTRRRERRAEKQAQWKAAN
Described as above.

The target in series [3] is T1, HTLV-1 Rex peptide. Put plainly: EMSA; peptide in excess over RNA; ++; 50 mM Tris-HCl pH 8.0, 50 mM KCl, 30 °C 15 min; RNA refolded from 95 °C; 15% PAGE in Tris-borate-EDTA, ethidium bromide stain.

Turning to GGCUGGACUCGUACUUCGGUACUGGAGAAACAGCC (structured_RNA) [HIV-1 Rev aptamer], the binding result in series [1] and in series [2] was “no binding” each time.
In the case of UAGGCGACGGUACGCAAGUACUCUUGCGCCGGCCUA (structured_RNA) [HTLV-1 Rex aptamer], the “apparent K (half saturation)” value in series [3] is ~300 nM. The binding result in series [2] is reported as “no binding”.
